The values below come from US20150011431A1 (Scripps Research, published 2015).

Residue numbers refer to the chain shown, from its start. Names and notes keep the numbering of the source.

The chains are these.
T1: CXCR1 (UniProt P25024 1-350, limits assumed)
T1 construct: whole, on cells; DiscoveRx cells engineered with a luminescent reporter enzyme for beta-arrestin recruitment; also called CXCR1-U2OS; U2OS-CXCR1
T1 sequence (looked up): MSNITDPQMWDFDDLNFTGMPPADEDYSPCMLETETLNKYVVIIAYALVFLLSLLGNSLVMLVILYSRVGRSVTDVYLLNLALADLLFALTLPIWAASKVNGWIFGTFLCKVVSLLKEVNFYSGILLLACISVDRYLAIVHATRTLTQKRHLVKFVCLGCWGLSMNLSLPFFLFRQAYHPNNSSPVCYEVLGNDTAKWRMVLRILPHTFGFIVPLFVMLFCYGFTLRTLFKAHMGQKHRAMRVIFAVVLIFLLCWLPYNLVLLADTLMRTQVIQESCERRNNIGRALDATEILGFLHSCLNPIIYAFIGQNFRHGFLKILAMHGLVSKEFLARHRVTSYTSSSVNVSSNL

B1: IgG with VH4-34+CDR3-IL8_CDR1 Cow CDR2 Cow and light chain V1-51 CDR1 I29V, N32G (antibody)
heavy: not shown
light: QSVLTQPPSVSAAPGQKVTISCSGSSSNVGNGYVSWYQQLPGTAPKLLIYDNNKRPSGIPDRFSGSKSGTSATLGITGLQTGDEADYYCASAEDSSSNAVFGSGTTLTVLGQPKAAPSVTLFPPSSEELQANKATLVCLISDFYPGAVTVAWKADSSPVKAGVETTTPSKQSNNKYAASSYLSLTPEQWKSHRSYSCQVTHEGSTVEKTVAPTECS
notes: IgG, human IgG1 CH1-CH2-CH3; normalized to 10 nM; also called VH4-34 CDR3-IL8 CDR1-Cow & CDR2-Cow / V1-51 CDR1 I29V, N32G
B2: IgG with VH4-34+CDR3-IL8_CDR1 Cow and light chain V1-51 CDR2 DNNKRP to GDTSRA (antibody)
heavy: not shown
light: B1 light with V29I, G32N, D51G, N52D, N53T, K54S, P56A
notes: IgG, human IgG1 CH1-CH2-CH3; normalized to 10 nM; Only 'DNN (amino acids 51-53)' is printed; positions 54 and 56 are counted on from it
B3: IgG with VH4-34+CDR3-IL8_CDR1 Cow and light chain V1-51 CDR1 I29V, N32G (antibody)
heavy: not shown
light: B1 light
notes: IgG, human IgG1 CH1-CH2-CH3; normalized to 10 nM; also called VH4-34 CDR3-IL8 CDR1-Cow / V1-51 CDR1 I29V, N32G
B4: IgG with VH4-34+CDR3-IL8_CDR1 Cow CDR2 Cow and light chain V1-51 CDR2 DNN to GDT (antibody)
heavy: not shown
light: B1 light with V29I, G32N, D51G, N52D, N53T
notes: IgG, human IgG1 CH1-CH2-CH3; normalized to 10 nM; also called VH4-34 CDR3-IL8 CDR1-Cow & CDR2-Cow / V1-51 CDR2 DNN to GDT
B5: IgG with VH4-34+CDR3-IL8_CDR1 Cow CDR2 Cow and light chain V1-51 CDR2 DNNKRP to GDTSRA (antibody)
heavy: not shown
light: B1 light with V29I, G32N, D51G, N52D, N53T, K54S, P56A
notes: IgG, human IgG1 CH1-CH2-CH3; normalized to 10 nM
B6: IgG with VH4-34+CDR3-IL8_CDR1 Cow CDR2 Cow and light chain V1-51 S2A, T5N, P8S, A12G, A13S, P14L (antibody)
heavy: not shown
light: B1 light with S2A, T5N, P8S, A12G, A13S, P14L, V29I, G32N
notes: IgG, human IgG1 CH1-CH2-CH3; normalized to 10 nM; also called VH4-34 CDR3-IL8 CDR1-Cow & CDR2-Cow / V1-51 S2A, T5N, P8S, A12G, A13S, P14L
B7: IgG with VH4-34+CDR3-IL8_CDR1 Cow and light chain V1-51 S2A, T5N, P8S, A12G, A13S, P14L & DNN to GDT (antibody)
heavy: not shown
light: QAVLNQPSSVSGSLGQKVTISCSGSSSNIGNNYVSWYQQLPGTAPKLLIYGDTKRPSGIPDRFSGSKSGTSATLGITGLQTGDEADYYCASAEDSSSNAVFGSGTTLTVLGQPKAAPSVTLFPPSSEELQANKATLVCLISDFYPGAVTVAWKADSSPVKAGVETTTPSKQSNNKYAASSYLSLTPEQWKSHRSYSCQVTHEGSTVEKTVAPTECS
notes: IgG, human IgG1 CH1-CH2-CH3; normalized to 10 nM; also called VH4-34 CDR3-IL8 CDR1-Cow / V1-51 S2A, T5N, P8S, A12G, A13S, P14L & DNN to GDT
B8: IgG with VH1-46+CDR3-IL8 (antibody)
VH: QVQLVQSGAEVKKPGASVKVSCKASGYTFTSYYMHWVRQAPGQGLEWMGIINPSGGSTSYAQKFQGRVTMTRDTSTSTVYMELSSLRSEDTAVYYCTSVHQETKKYQSPRSAKELRCQCIKTYSKPFHPKFIKELRVIESGPHCANTEIIVKLSDGRELCLDPKENWVQRVVEKFLKRAENSGSGSYTYNYEWHVDVWGQGLLVTVSSAS
light: not shown
notes: IgG; VH cloned before human IgG1 CH1-CH2-CH3 in HC pFuse; cell culture supernatant; also called VH1-46 BLVCDR3IL8
B9: IgG with VH1-69+CDR3-IL8 (antibody)
VH: QVQLVQSGAEVKKPGSSVKVSCKASGGTFSSYAISWVRQAPGQGLEWMGGIIPIFGTANYAQKFQGRVTITADKSTSTAYMELSSLRSEDTAVYYCTSVHQETKKYQSPRSAKELRCQCIKTYSKPFHPKFIKELRVIESGPHCANTEIIVKLSDGRELCLDPKENWVQRVVEKFLKRAENSGSGSYTYNYEWHVDVWGQGLLVTVSSAS
light: not shown
notes: IgG; VH cloned before human IgG1 CH1-CH2-CH3 in HC pFuse; cell culture supernatant; also called VH1-69 BLVCDR3IL8
B10: IgG with VH4-4+CDR3-IL8 (antibody)
VH: QVQLQESGPGLVKPSETLSLTCTVSGGSISSYYWSWIRQPAGKGLEWIGRIYTSGSTNYNPSLKSRVTMSVDTSKNQFSLKLSSVTAADTAVYYCTSVHQETKKYQSPRSAKELRCQCIKTYSKPFHPKFIKELRVIESGPHCANTEIIVKLSDGRELCLDPKENWVQRVVEKFLKRAENSGSGSYTYNYEWHVDVWGQGLLVTVSSAS
light: not shown
notes: IgG; VH cloned before human IgG1 CH1-CH2-CH3 in HC pFuse; also called VH4-4 BLVCDR3IL8
B11: IgG with VH1-24+CDR3-IL8 (antibody)
VH: QVQLVQSGAEVKKPGASVKVSCKVSGYTLTELSMHWVRQAPGKGLEWMGGFDPEDGETIYAQKFQGRVTMTEDTSTDTAYMELSSLRSEDTAVYYCTSVHQETKKYQSPRSAKELRCQCIKTYSKPFHPKFIKELRVIESGPHCANTEIIVKLSDGRELCLDPKENWVQRVVEKFLKRAENSGSGSYTYNYEWHVDVWGQGLLVTVSSAS
light: not shown
notes: IgG; VH cloned before human IgG1 CH1-CH2-CH3 in HC pFuse; cell culture supernatant; also called VH1-24 BLVCDR3IL8

One test addresses T1, CXCR1. Description: flow cytometry with 2 ug/ml heparin sulfate, IgG normalized to 10 nM; CXCR1-U2OS against parental U2OS cells. The procedure: (§1) Cell culture supernatants were then tested for binding to cells by flow cytometry. The adherent U2OS or CXCR1-U2OS cells were dissociated with Accutase (Innovative Cell Technologies, Inc., San Diego, Calif.), neutralized with an equal volume of media containing 10% serum, centrifuged at 1000 g, and resuspended in PBS with 2% BSA. Next, cells were dispensed into microtiter plates to achieve between 30,000 to 300,000 cells per well, centrifuged again, and resuspended in cell culture supernatant containing expressed IgG, or a dilution of IgG-containing cell culture supernatant. A fluorescent-conjugated anti-Human Fc antibody was used to detect binding of the expressed antibody to cells.
In an exemplary method, variants of V1-51 were made by overlap PCR and subcloned into pFuse vector for expression as described in Example 4. […] These V1-51 variants were paired with heavy chains encoding VH4-34+CDR3-IL8 (SEQ ID NO: 430), VH4-34+CDR3-IL8_CDR1 Cow (SEQ ID NO: 432), VH4-34+CDR3-IL8_CDR2 Cow (SEQ ID NO: 433), or VH4-34+CDR3-IL8_CDR1 Cow CDR2 Cow, (SEQ ID NO: 436). Transfections and ELISA were carried out as described above, and flow cytometry was used to evaluate CXCR1 binding specificity as previously described, with the modification that cells were resuspended in 2% BSA in PBS plus 2 ug/ml Heparin sulfate, and IgGs were normalized to 10 nM during incubation on cells.
As for B1, the CXCR1 specificity amounted to 11.8. The same measure, in the same setting: with B2 the figure was 8; with B3, 8.9. Regarding B4, the CXCR1 specificity is 16.7. B5: the CXCR1 specificity amounted to 6.9. In the case of B6, the CXCR1 specificity is 12.2. On the same count and under the same terms, under B7 stands 6.8.

For another test, the target named is T1, CXCR1. Description: flow cytometry, IgG-containing supernatant on CXCR1-U2OS cells, fluorescent anti-human Fc. The procedure:
as §1, with “In an exemplary method, BLV1H12 IgG comprising a CDR3 with an IL-8 insert (e.g., the IL-8 sequence replaced a portion of the CDR3) was evaluated for binding to CXCR1 expressing cells by flow cytometry. Briefly, a cell line expressing functionally validated CXCR1 derived from U2OS cells was obtained from DiscoveRx and cultured per manufacturer's instructions (Cat#93-0226C3, DiscoveRx Corporation, Freemont, Calif.). The parental cell line U2OS was obtained from ATCC and cultured under the same conditions as the CXCR1 cells. Cell culture” for “Cell culture”
(§2) Additionally, the human germline CDR3-IL8 IgGs described in Example 5 were evaluated for binding to CXCR1 expressing cells by flow cytometry as described above. IgG binding to CXCR1-U2OS cells is indicated by higher fluorescence values, but non-specific binding to U2OS parental cells is also detectable.
As to B8, the “median fluorescence on CXCR1-U2OS” value came to 6 AFU. On the same count and under the same terms, under B9 stands 78 AFU. In the case of B10, the “median fluorescence on CXCR1-U2OS” value is 3080 AFU. Turning to B11, the “median fluorescence on CXCR1-U2OS” value was 23 AFU.

For a further test, the target named is T1, CXCR1. The experiment in a line: flow cytometry; fluorescence on CXCR1-U2OS cells over fluorescence on parental U2OS cells. The procedure: as §1, with “In an exemplary method, BLV1H12 IgG comprising a CDR3 with an IL-8 insert (e.g., the IL-8 sequence replaced a portion of the CDR3) was evaluated for binding to CXCR1 expressing cells by flow cytometry. Briefly, a cell line expressing functionally validated CXCR1 derived from U2OS cells was obtained from DiscoveRx and cultured per manufacturer's instructions (Cat#93-0226C3, DiscoveRx Corporation, Freemont, Calif.). The parental cell line U2OS was obtained from ATCC and cultured under the same conditions as the CXCR1 cells. Cell culture” for “Cell culture”
as §2
On to B8, for which the “Ratio of CXCR1/Parental” value worked out at 1.1. In the case of B9, the “Ratio of CXCR1/Parental” value worked out at 4. Consider B10, for which the “Ratio of CXCR1/Parental” value is 3.1.

Take B11: the “Ratio of CXCR1/Parental” value stood at 4.3.
